Patent publication US6846645B2, “Multiplexed enzymatic assays” (Aclara Biosciences, Inc., priority 2000, dated 2005)

Tests used:
Receptor II kinase [1] = assay: Screening assay for competitive inhibitors: competition between insulin β chain and EGF, monitored by receptor II kinase activity; assay type: biochemical
Protocol: Before adding kinase substrate, incubate the mixture for 5 min to activate receptor II kinase by binding to insulin β. The incubation was done at room temperature for 30 min. Either 10 μL of 200 mM EDTA is added or the sample is frozen to stop the reaction before analysis. For the frozen sample, analysis was performed immediately after thawing the samples. Analysis was done on a modified Henry chip with 5 mm effective separation length. The injection was performed by applying 400 V at well #2 for 45 s while grounding other wells. The separation conditions are: 0 V for Well #1, 400 V for well #2 and 4, 700 V for well #3.

Receptor II kinase [2] = assay: Receptor II assay: ligand enhancement of receptor II kinase activity; assay type: biochemical; conditions: saturating (high) ligand concentrations, 25 μM substrate, fixed amount of receptor II
Protocol: Before adding kinase substrate, incubate the mixture for 5 min to activate receptor II kinase by binding to insulin β. The incubation was done at room temperature for 30 min. Either 10 μL of 200 mM EDTA is added or the sample is frozen to stop the reaction before analysis. For the frozen sample, analysis was performed immediately after thawing the samples.
Analysis was done on a modified Henry chip with 5 mm effective separation length. The injection was performed by applying 400 V at well #2 for 45 s while grounding other wells. The separation conditions are: 0 V for Well #1, 400 V for well #2 and 4, 700 V for well #3.
As another example, receptor II (an insulin-related receptor) was studied in connection with insulin-like growth factor (IGF). A significant enhancement (>4 fold) in receptor II kinase activity was observed. Other ligands tested include insulin, insulin α and β chain. Both insulin and insulin β chain stimulated this receptor kinase activity by as much as 20 fold when a high concentration was used (Table 2). […] For this experiment, 25 μM substrate was used with a fixed amount of receptor II and various amounts of ligands to ensure a saturated binding between receptor and ligand.

Substance | extent of competition with activating ligand (Receptor II kinase [1]; higher insulin β concentration (15 μM), FIG. 14A) | extent of competition with activating ligand (Receptor II kinase [1]; lower insulin β chain concentration of 3 μM, FIG. 14B) | IC50 (Receptor II kinase [1]; read-out: IC50 of EGF competing with insulin β chain activation of receptor II kinase, insulin β chain at 3 μM and 15 μM, fixed receptor concentration) | Receptor II Kinase Activity Enhancement (fold) (Receptor II kinase [2]) | Receptor II Kinase Activity Enhancement (fold) (Receptor II kinase [2]; listed as Insulin α chain)
Epidermal growth factor [EGF] | did not show complete competition | near complete competition | 200 to 300 nM | – | –
Insulin α chain | – | – | – | ˜3 fold | about 3 fold
Insulin β chain | – | – | – | >20 fold | –
insulin | – | – | – | >20 fold | –
